We go through 1 substance from publication doi:10.1101/559120.

The assay has as its target branched-chain amino acid aminotransferase from Pseudomonas sp. (Pseudomonas sp.). Put plainly: crystal structure.

One may read the stoichiometry N as a count of units in the complex or per binding partner. Substance “branched-chain amino acid aminotransferase from Pseudomonas sp. (enzyme)” registered a stoichiometry N of 2.
